Measured values reported in PMC4259882.

B1: fabB probe (dsDNA)
DNA 1: TCTATTAAATGGCTGATCGGACTTGTTCGGCGTACAAGTGTACGCTATTGTGCATTC
DNA 2: GAATGCACAATAGCGTACACTTGTACGCCGAACAAGTCCGATCAGCCATTTAATAGA
B2: fabA probe (dsDNA)
DNA 1: TTTATTCCGAACTGATCGGACTTGTTCAGCGTACACGTGTTAGCTATCCTGCGTGC
DNA 2: GCACGCAGGATAGCTAACACGTGTACGCTGAACAAGTCCGATCAGTTCGGAATAAA
B3: fadL probe 2 (dsDNA)
DNA 1: CTCTCGCCACTGGTCTGATTTCTAAGATGTACCTC
DNA 2: GAGGTACATCTTAGAAATCAGACCAGTGGCGAGAG
B4: fadD probe 1 (dsDNA)
DNA 1: GAAACAGCGGCTGGTCCGCTGTTTCTGCATTCT
DNA 2: AGAATGCAGAAACAGCGGACCAGCCGCTGTTTC
B5: fadD probe 2 (dsDNA)
DNA 1: GTAATTATCAAGCTGGTATGATGAGTTAATATTATG
DNA 2: CATAATATTAACTCATCATACCAGCTTGATAATTAC
B6: fadL probe 1 (dsDNA)
DNA 1: GCAACATTCCAGCTGGTCCGACCTATACTCTCGCC
DNA 2: GGCGAGAGTATAGGTCGGACCAGCTGGAATGTTGC
B7: fadBA probe (dsDNA)
DNA 1: ACTTCGACTCATCTGGTACGACCAGATCACCTTGCGG
DNA 2: CCGCAAGGTGATCTGGTCGTACCAGATGAGTCGAAGT

Tests used:
[1] = biological target: T1, FadR K113 (W60G) (Escherichia coli strain K113, UniProt P0A8V6 1-239, W60G); assay: EMSA; up to 2 pmol protein; Roche DIG gel shift binding buffer (composition not stated), 15 min, room temperature; 0.1 pmol (Fig. 3) or 0.2 pmol (Fig. 6) probe; 7-7.5% native PAGE
[2] = biological target: T2, FadR WT (Escherichia coli K12, UniProt P0A8V6 1-239); assay: EMSA; Roche DIG gel shift binding buffer (composition not stated), 15 min, room temperature; 0.1 pmol (Fig. 3) or 0.2 pmol (Fig. 6) probe; 7-7.5% native PAGE
[3] = biological target: FadR F74G (Escherichia coli K12, UniProt P0A8V6 1-239, F74G); assay: EMSA; up to 10 pmol protein; Roche DIG gel shift binding buffer (composition not stated), 15 min, room temperature; 0.1 pmol (Fig. 3) or 0.2 pmol (Fig. 6) probe; 7-7.5% native PAGE
[4] = biological target: FadR F74G/W75G (Escherichia coli K12, UniProt P0A8V6 1-239, F74G;W75G); assay: as above
[5] = biological target: T1, FadR K113 (W60G); assay: as above
[6] = biological target: FadR W75G (Escherichia coli K12, UniProt P0A8V6 1-239, W75G); assay: as above
[7] = biological target: T2, FadR WT; assay: EMSA; dose-dependent, 0.05-10 pmol protein; Roche DIG gel shift binding buffer (composition not stated), 15 min, room temperature; 0.1 pmol (Fig. 3) or 0.2 pmol (Fig. 6) probe; 7-7.5% native PAGE

Row | Binder | binding result [1] | binding result [2] | further results
1 | B1 | no binding | binds | 
2 | B2 | no binding | binds | 
3 | B3 | no binding | binds | 
4 | B4 | no binding | binds | 
5 | B5 |  |  | binding result [3]: no binding; binding result [4]: no binding; binding result [5]: no binding; binding result [6]: no binding; binding result [7]: binds
6 | B6 | no binding | binds | 
7 | B7 | no binding | binds | 
